Values quoted from earlier work in article PMC4652169.

Target: IgG Fc Fc (Homo sapiens) [IgG part: P01857]
Assay: given as Ka

Substance: Protein A Z domain (ZWT) Z domain (from UniProt P02976)
- Kd: 16.9 nM
